First the molecules themselves.
B1: GST-RGS17 (human RGS17 with an N-terminal glutathione-S-transferase and a C-terminal 6xHis tag) (domain or fragment, UniProt Q9UGC6 61-210, looked up)
chain: MESIQVLEECQNPTAEEVLSWSQNFDKMMKAPAGRNLFREFLRTEYSEENLLFWLACEDLKKEQNKKVIEEKARMIYEDYISILSPKEVSLDSRVREVINRNLLDPNPHMYEDAQLQIYTLMHRDSFPRFLNSQIYKSFVESTAGSSSES

The target in assay [1] is biotinylated 6x-His-tagged Gαo (UniProt P59215 1-354, biotin (EZ-Link Biotin-BMCC, maleimide chemistry, labeled at a 10:1 biotin/protein ratio)). The assay can be described thus: AlphaScreen or HTRF. (In Alpha technology, singlet oxygen from a donor bead excites a nearby acceptor bead.)
Assay [2] has as its target B1. The assay can be described thus: AlphaScreen or HTRF.
Another assay deals with T1, Gαo–RGS17 interaction (Homo sapiens, UniProt Q9UGC6).
T1 sequence (Q9UGC6 61-210 limits assumed): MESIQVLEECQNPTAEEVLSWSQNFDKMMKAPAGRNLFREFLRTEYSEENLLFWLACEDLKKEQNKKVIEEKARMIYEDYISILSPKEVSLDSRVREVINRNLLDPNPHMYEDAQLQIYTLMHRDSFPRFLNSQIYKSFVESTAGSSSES
The assay can be described thus: AlphaScreen competition binding with free Gαo.

As usually defined, the Kd is the constant that tells how readily two partners part at equilibrium. For B1, the Kd in assay [1] worked out at 29.2 ± 4.4 nM.

B2: 6x-His-tagged Gαo, not biotinylated (free Gαo) (natural protein, UniProt P59215 1-354, looked up)
chain: MGCTLSAEERAALERSKAIEKNLKEDGISAAKDVKLLLLGAGESGKSTIVKQMKIIHEDGFSGEDVKQYKPVVYSNTIQSLAAIVRAMDTLGVEYGDKERKADSKMVCDVVSRMEDTEPFSAELLSAMMRLWGDSGIQECFNRSREYQLNDSAKYYLDSLDRIGAADYQPTEQDILRTRVKTTGIVETHFTFKNLHFRLFDVGGQRSERKKWIHCFEDVTAIIFCVALSGYDQVLHEDETTNRMHESLMLFDSICNNKFFIDTSIILFLNKKDLFGEKIKKSPLTICFPEYPGSNTYEDAAAYIQTQFESKNRSPNKEIYCHMTCATDTNNIQVVFDAVTDIIIANNLRGCGLY
The IC50 is the concentration that inhibits the measured activity by half. Low values mean higher potency, high ones lower potency. Turning to B2, in assay [2], half-maximal inhibition (IC50) was put at 46 ± 1.1 nM.

B3: free Gαo: un-biotinylated Gαo protein used as competitor in the AlphaScreen competition binding assay (protein)
chain: MGCTLSAEERAALERSKAIEKNLKEDGISAAKDVKLLLLGAGESGKSTIVKQMKIIHEDGFSGEDVKQYKPVVYSNTIQSLAAIVRAMDTLGVEYGDKERKADSKMVCDVVSRMEDTEPFSAELLSAMMRLWGDSGIQECFNRSREYQLNDSAKYYLDSLDRIGAADYQPTEQDILRTRVKTTGIVETHFTFKNLHFRLFDVGGQRSERKKWIHCFEDVTAIIFCVALSGYDQVLHEDETTNRMHESLMLFDSICNNKFFIDTSIILFLNKKDLFGEKIKKSPLTICFPEYPGSNTYEDAAAYIQTQFESKNRSPNKEIYCHMTCATDTNNIQVVFDAVTDIIIANNLRGCGLY
modifications: left off: His6, end not stated, state not stated
What is called Hill slope is the slope factor of the fitted curve. In the assay with Gαo–RGS17 interaction, B3 came in with a Hill slope of −1.3.
